Data from publication doi:10.1101/2025.08.15.670450 (2025).

Columns and labels:
[1] = molecular target: GDM_VEGFA_54; assay: BLI
[2] = molecular target: VEGF-A_Binder_13; assay: BLI
[3] = molecular target: VEGF-A Binder 13; assay: BLI; KD1
[4] = molecular target: VEGF-A Binder 13; assay: BLI; KD2, second site
[5] = molecular target: GDM_VEGFA_54; assay: reported in original publication

B1: Vascular Endothelial Growth Factor A (VEGF-A) (ligand)
chain: MTDRQTDTAPSPSYHLLPGRRRTVDAAASRGQGPEPAPGGGVEGVGARGVALKLFVQLLGCSRFGGAVVRAGEAEPSGAARSASSGREEPQPEEGEEEEEKEEERGPQWRLGARKPGSWTGEAAVCADSAPAARAPQALARASGRGGRVARRGAEESGPPHSPSRRGSASRAGPGRASETMNFLLSWVHWSLALLLYLHHAKWSQAAPMAEGGGQNHHEVVKFMDVYQRSYCHPIETLVDIFQEYPDEIEYIFKPSCVPLMRCGGCCNDEGLECVPTEESNITMQIMRIKPHQGQHIGEMSFLQHNKCECRPKKDRARQEKKSVRGKGKGQKRKRKKSRYKSWSVPCGPCSERRKHLFVQDPQTCKCSCKNTDSRCKARQLELNERTCRCDKPRR
[1]
  Kd: 0.0101 µM
[2]
  Kd: 0.0134 µM
[3]
  Kd: 0.0264 µM
[4]
  Kd: 0.0864 µM
[5]
  Kd: 0.00048 µM
